We go through six molecules from patent US20110110856A1 (SIGNALOMICS, published 2011).

Residue numbers refer to the chain shown, from its start. Numbers in names are those of the source.

The chains are these.
B1: combined mutant T95E T123I (on DraE T88M N77K) (ligand)
chain: GFTPSGTTGTTKLTVTEECQVRVGDLTVAKTRGQLTDAAPIGPVTVQALGCDARQVALKADTDNFEQGKFFLISDNKRDKLYVNIRPMDNSAWTEDNGVFYKNDVGSWGGIIGIYVDGQQTNIPPGNYTLTLTGGYWAK
notes: also called T95E T1231
B2: DraE T88M G118S I85L (ligand)
chain: B1 chain with I85L, E95T, G118S, I123T
B3: DraE T88M Q34L N84S (ligand)
chain: B1 chain with Q34L, N84S, E95T, I123T
B4: combination mutant F100I T123I (on DraE T88M N77K) (ligand)
chain: B1 chain with E95T, F100I
B5: combined mutant F100S T11I D37G (on DraE T88M N77K) (ligand)
chain: B1 chain with T11I, D37G, E95T, F100S, I123T
notes: also called F1005 T11I D37G
B6: DraE T88M (N77K) I111H (ligand)
chain: B1 chain with E95T, I111H, I123T

The first test addresses T1, N-terminal domain of CEA (Homo sapiens (Human), UniProt P06731 35-144).
T1 construct: Target of the yeast two-hybrid screens; synthetic gene, codon-optimised for S. cerevisiae, cloned into a yeast TH vector; The fusion partner of the vector is not described; also called N-CEA; CEACAM5
T1 sequence: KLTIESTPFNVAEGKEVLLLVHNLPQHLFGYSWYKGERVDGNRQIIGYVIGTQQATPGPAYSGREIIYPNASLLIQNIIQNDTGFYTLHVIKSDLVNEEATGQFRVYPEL
The test can be described thus: yeast two-hybrid, FDG rescreening.
Consider B1, for which the binding result is recorded as “binds”.
Consider B2, for which the binding result is “binds”.
Same read-out and setting: the result for B3 reads “binds”; that for B4, “binds”; that for B5, “binds”.

In a further test the target is T1, N-terminal domain of CEA. The test can be described thus: yeast two-hybrid screen against N-CEA.
For B6, the binding result is reported as “binds”.
